Test results as given in PMC3334620.

Key:
[1] = target: T1, Cin5 (Saccharomyces cerevisiae) (UniProt P40917); settings: 100 nM
T1 sequence: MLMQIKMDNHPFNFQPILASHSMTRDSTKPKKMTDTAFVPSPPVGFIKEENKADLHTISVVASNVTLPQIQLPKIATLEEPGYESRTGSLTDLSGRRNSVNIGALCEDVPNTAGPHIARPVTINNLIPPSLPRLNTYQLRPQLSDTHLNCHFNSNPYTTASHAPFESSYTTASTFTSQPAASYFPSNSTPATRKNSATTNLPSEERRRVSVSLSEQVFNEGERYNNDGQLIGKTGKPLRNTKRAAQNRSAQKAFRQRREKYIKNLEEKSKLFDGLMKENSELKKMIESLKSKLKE

[2] = target: T2, Yap3 (Saccharomyces cerevisiae) (UniProt P38749); settings: 100 nM
T2 sequence: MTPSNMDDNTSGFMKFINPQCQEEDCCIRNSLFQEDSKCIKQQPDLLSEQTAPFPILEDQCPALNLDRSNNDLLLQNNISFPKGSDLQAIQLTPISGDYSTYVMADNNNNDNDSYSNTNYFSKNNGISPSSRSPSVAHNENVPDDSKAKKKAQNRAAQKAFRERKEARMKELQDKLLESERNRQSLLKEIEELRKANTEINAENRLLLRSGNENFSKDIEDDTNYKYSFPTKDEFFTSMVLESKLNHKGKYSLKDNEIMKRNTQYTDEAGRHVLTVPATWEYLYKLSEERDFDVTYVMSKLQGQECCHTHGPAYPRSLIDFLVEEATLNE

[3] = target: T3, Sut1 (Saccharomyces cerevisiae) (UniProt P53032); settings: 200 nM
T3 sequence: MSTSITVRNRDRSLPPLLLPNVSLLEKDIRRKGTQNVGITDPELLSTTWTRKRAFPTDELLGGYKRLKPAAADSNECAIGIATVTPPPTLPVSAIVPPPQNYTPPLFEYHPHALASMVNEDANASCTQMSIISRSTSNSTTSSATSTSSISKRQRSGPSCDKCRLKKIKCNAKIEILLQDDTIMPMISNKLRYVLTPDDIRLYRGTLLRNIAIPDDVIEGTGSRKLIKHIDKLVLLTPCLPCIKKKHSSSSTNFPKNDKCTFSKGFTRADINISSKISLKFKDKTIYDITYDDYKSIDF

[4] = target: T4, Yer184c (Saccharomyces cerevisiae) (UniProt P39961); settings: 100 nM
T4 sequence: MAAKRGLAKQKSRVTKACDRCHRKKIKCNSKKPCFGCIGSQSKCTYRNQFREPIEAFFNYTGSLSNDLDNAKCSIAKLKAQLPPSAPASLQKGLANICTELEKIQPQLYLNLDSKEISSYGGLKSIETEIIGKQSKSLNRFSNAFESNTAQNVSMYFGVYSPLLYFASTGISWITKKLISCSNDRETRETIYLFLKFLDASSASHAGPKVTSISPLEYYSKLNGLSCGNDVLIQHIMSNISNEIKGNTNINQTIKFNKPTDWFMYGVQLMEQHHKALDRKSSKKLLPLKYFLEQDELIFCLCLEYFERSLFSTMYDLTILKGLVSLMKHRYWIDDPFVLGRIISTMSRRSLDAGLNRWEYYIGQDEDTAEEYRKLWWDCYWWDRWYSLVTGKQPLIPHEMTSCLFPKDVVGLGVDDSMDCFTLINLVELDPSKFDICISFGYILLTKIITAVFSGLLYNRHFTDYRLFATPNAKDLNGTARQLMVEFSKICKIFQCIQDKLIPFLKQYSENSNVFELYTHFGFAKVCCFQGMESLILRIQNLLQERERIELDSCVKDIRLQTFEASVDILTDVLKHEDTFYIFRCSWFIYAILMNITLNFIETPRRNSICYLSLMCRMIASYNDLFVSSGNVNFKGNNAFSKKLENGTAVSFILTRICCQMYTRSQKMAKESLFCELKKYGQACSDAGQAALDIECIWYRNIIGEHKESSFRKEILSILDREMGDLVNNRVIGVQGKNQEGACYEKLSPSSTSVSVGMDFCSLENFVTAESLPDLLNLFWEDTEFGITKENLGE

[5] = target: T5, Cad1 (Saccharomyces cerevisiae) (UniProt P24813); settings: 100 nM
T5 sequence: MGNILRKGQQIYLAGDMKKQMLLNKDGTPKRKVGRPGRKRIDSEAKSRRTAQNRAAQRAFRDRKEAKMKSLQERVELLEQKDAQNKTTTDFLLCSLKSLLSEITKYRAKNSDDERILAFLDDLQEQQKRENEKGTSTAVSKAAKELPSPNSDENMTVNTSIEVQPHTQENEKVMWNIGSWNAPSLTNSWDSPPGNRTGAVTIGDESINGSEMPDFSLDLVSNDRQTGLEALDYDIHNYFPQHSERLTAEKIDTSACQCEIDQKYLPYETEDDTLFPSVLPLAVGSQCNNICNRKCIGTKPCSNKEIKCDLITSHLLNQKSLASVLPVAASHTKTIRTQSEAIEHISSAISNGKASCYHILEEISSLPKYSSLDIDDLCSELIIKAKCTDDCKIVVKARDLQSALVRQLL

[6] = target: T6, Sko1 (Saccharomyces cerevisiae) (UniProt Q02100); settings: 200 nM
T6 sequence: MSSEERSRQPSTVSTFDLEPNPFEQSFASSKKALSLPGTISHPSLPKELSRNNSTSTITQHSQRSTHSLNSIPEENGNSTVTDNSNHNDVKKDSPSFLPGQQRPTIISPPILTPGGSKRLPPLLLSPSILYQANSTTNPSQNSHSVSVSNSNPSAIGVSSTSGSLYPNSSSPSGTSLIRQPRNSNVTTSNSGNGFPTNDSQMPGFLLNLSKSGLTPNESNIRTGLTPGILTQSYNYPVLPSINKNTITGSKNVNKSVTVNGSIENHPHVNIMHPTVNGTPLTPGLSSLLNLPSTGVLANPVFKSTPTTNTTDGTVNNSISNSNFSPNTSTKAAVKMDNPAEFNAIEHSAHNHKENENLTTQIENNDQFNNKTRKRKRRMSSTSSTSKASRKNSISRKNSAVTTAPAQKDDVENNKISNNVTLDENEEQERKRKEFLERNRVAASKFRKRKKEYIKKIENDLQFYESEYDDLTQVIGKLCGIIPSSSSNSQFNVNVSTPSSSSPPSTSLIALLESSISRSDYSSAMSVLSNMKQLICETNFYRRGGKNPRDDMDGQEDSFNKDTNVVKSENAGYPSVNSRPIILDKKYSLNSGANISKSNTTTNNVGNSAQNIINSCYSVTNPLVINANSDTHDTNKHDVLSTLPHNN

[7] = target: T7, Pdr3 (Saccharomyces cerevisiae) (UniProt P33200); settings: 200 nM
T7 sequence: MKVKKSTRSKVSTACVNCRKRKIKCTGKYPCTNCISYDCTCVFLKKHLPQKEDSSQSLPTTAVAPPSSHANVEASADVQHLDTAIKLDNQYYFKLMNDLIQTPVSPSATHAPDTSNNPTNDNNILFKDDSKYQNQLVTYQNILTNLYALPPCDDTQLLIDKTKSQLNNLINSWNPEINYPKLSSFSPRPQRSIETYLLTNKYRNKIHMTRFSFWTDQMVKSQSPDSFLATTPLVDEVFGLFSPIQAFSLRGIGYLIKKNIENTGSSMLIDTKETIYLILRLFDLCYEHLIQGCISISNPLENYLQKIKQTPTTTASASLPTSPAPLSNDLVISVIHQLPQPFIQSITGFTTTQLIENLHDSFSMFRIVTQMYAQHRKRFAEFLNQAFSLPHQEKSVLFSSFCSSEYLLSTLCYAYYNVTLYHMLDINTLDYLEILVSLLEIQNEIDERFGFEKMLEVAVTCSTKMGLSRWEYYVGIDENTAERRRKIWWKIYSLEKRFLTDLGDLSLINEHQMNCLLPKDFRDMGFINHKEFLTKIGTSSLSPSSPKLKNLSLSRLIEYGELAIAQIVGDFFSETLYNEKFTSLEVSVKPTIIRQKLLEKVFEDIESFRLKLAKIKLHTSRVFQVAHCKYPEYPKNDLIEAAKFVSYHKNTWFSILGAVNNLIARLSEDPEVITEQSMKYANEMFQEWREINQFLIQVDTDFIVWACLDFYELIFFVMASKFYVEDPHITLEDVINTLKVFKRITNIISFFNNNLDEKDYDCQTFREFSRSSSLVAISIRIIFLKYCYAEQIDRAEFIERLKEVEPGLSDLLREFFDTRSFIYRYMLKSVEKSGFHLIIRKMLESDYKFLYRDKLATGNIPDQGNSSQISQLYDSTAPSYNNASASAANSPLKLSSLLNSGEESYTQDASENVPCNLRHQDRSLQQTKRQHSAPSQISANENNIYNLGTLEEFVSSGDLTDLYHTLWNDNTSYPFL

Row | Sequence | binding signal (PBM E-score (-0.5 to 0.5)) [2] | binding signal (PBM E-score (-0.5 to 0.5)) [5] | other results
1 | ACGTAATC (double strand) [8-mer ACGTAATC] | 0.462 |  | binding signal (PBM E-score (-0.5 to 0.5)) [1]: 0.496
2 | ACTCCGGA (double strand) [8-mer ACTCCGGA] |  |  | binding signal (PBM E-score (-0.5 to 0.5)) [3]: 0.495; binding signal (PBM E-score (-0.5 to 0.5)) [4]: 0.459
3 | ATTAATAA (double strand) [8-mer ATTAATAA] |  | 0.46 | 
4 | ATTACGTA (double strand) [8-mer ATTACGTA] | 0.478 |  | binding signal (PBM E-score (-0.5 to 0.5)) [1]: 0.49; binding signal (PBM E-score (-0.5 to 0.5)) [6]: 0.497
5 | ATTACTAA (double strand) [8-mer ATTACTAA] | 0.479 | 0.492 | 
6 | ATTAGTAA (double strand) [8-mer ATTAGTAA] | 0.487 | 0.49 | 
7 | ATTAGTCA (double strand) [8-mer ATTAGTCA] |  | 0.491 | 
8 | ATTTGTCA (double strand) [8-mer ATTTGTCA] |  | 0.465 | 
9 | CTGACTAA (double strand) [8-mer CTGACTAA] |  | 0.488 | 
10 | CTTACTAA (double strand) [8-mer CTTACTAA] |  | 0.484 | 
11 | CTTAGTAA (double strand) [8-mer CTTAGTAA] |  | 0.471 | 
12 | TCCGCGGA (double strand) [8-mer TCCGCGGA] |  |  | binding signal (PBM E-score (-0.5 to 0.5)) [7]: 0.5; binding signal (PBM E-score (-0.5 to 0.5)) [4]: 0.481
13 | TTACGTAA (double strand) [8-mer TTACGTAA] | 0.496 | 0.48 | binding signal (PBM E-score (-0.5 to 0.5)) [1]: 0.497; binding signal (PBM E-score (-0.5 to 0.5)) [6]: 0.496
14 | TTCCGGAA (double strand) [8-mer TTCCGGAA] |  |  | binding signal (PBM E-score (-0.5 to 0.5)) [7]: 0.492; binding signal (PBM E-score (-0.5 to 0.5)) [4]: 0.467
